Measurements: publication PMC4245980

Experiments:
Test in all cases: EMSA
McbR WT = McbR WT (Escherichia coli, UniProt P76114 1-221)
McbR E93S/R139F = McbR E93S/R139F (Escherichia coli, UniProt P76114 1-221, E93S;R139F)
McbR R89A/E93A/R139A = McbR R89A/E93A/R139A (Escherichia coli, UniProt P76114 1-221, R89A;E93A;R139A)

Measured: binding result

B1: PyciGECO (dsDNA)
DNA 1: AATTGTTAATATATCCAGAATGTTCCTCAAAATATATTTTCCCTCTAT
DNA 2: ATAGAGGGAAAATATATTTTGAGGAACATTCTGGATATATTAACAATT
binds: all assays above
